In article PMC5440646, “T Cell Costimulation by CD6 Is Dependent on Bivalent Binding of a GADS/SLP-76 Complex” (Molecular and Cellular Biology, 2017) one finds response data, which are given here for nine variants.

B1: human CD6 fused to EGFP [human] / GRB2-related adaptor downstream of Shc (GADS), endogenous [human (endogenous in Jurkat)] (parent)
chain 1: MEAVAKFDFTASGEDELSFHTGDVLKILSNQEEWFKAELGSQEGYVPKNFIDIQFPKWFHEGLSRHQAENLLMGKEVGFFIIRASQSSPGDFSISVRHEDDVQHFKVMRDNKGNYFLWTEKFPSLNKLVDYYRTNSISRQKQIFLRDRTREDQGHRGNSLDRRSQGGPHLSGAVGEEIRPSMNRKLSDHPPTLPLQQHQHQPQPPQYAPAPQQLQQPPQQRYLQHHHFHQERRGGSLDINDGHCGTGLGSEMNAALMHRRHTDPVQLQAAGRVRWARALYDFEALEDDELGFHSGEVVEVLDSSNPSWWTGRLHNKLGLFPANYVAPMTR
chain 2: HPSPAPPDQLNTSSAESELWEPGERLPVRLTNGSSSCSGTVEVRLEASWEPACGALWDSRAAEAVCRALGCGGAEAASQLAPPTPELPPPPAAGNTSVAANATLAGAPALLCSGAEWRLCEVVEHACRSDGRRARVTCAENRALRLVDGGGACAGRVEMLEHGEWGSVCDDTWDLEDAHVVCRQLGCGWAVQALPGLHFTPGRGPIHRDQVNCSGAEAYLWDCPGLPGQHYCGHKEDAGAVCSEHQSWRLTGGADRCEGQVEVHFRGVWNTVCDSEWYPSEAKVLCQSLGCGTAVERPKGLPHSLSGRMYYSCNGEELTLSNCSWRFNNSNLCSQSLAARVLCSASRSLHNLSTPEVPASVQTVTIESSVTVKIENKESRELMLLIPSIVLGILLLGSLIFIAFILLRIKGKYALPVMVNHQHLPTTIPAGSNSYQPVPITIPKEVFMLPIQVQAPPPEDSDSGSDSDYEHYDFSAQPPVALTTFYNSQRHRVTDEEVQQSRFQMPPLEEGLEELHASHIPTANPGHCITDPPSLGPQYHPRSNSESSTSSGEDYCNSPKSKLPPWNPQVFSSERSSFLEQPPNLELAGTQPAFSAGPPADDSSSTSSGEWYQNFQPPPQPPSEEQFGCPGSPSPQPDSTDNDDYDDISAA
B2: human CD6 fused to EGFP [human] / SH2 domain-containing leukocyte molecule of 76 kDa (SLP-76), endogenous [human (endogenous in Jurkat)] (parent)
chain 1: MALRNVPFRSEVLGWDPDSLADYFKKLNYKDCEKAVKKYHIDGARFLNLTENDIQKFPKLRVPILSKLSQEINKNEERRSIFTRKPQVPRFPEETESHEEDNGGWSSFEEDDYESPNDDQDGEDDGDYESPNEEEEAPVEDDADYEPPPSNDEEALQNSILPAKPFPNSNSMYIDRPPSGKTPQQPPVPPQRPMAALPPPPAGRNHSPLPPPQTNHEEPSRSRNHKTAKLPAPSIDRSTKPPLDRSLAPFDREPFTLGKKPPFSDKPSIPAGRSLGEHLPKIQKPPLPPTTERHERSSPLPGKKPPVPKHGWGPDRRENDEDDVHQRPLPQPALLPMSSNTFPSRSTKPSPMNPLPSSHMPGAFSESNSSFPQSASLPPYFSQGPSNRPPIRAEGRNFPLPLPNKPRPPSPAEEENSLNEEWYVSYITRPEAEAALRKINQDGTFLVRDSSKKTTTNPYVLMVLYKDKVYNIQIRYQKESQVYLLGTGLRGKEDFLSVSDIIDYFRKMPLLLIDGKNRGSRYQCTLTHAAGYP
chain 2: B1 chain 2
B3: human CD6 fused to EGFP [human] / T cell-specific adaptor protein (TSAd), endogenous [human (endogenous in Jurkat)] (parent)
chain 1: not shown
chain 2: B1 chain 2

Variants of B1 are the subject of the first experiment. The experiment can be described thus: co-immunoprecipitation (anti-CD6 IP), Western blot densitometry. The following applies: with GRB2-related adaptor downstream of Shc (GADS), Jurkat cells, 3 × 10^6 cells per sample, pervanadate treated, CD6 MAb (MEM-98), three experiments, read off a plot.
For chain 2 Y612F Y645F, the response worked out at 0.9 AU.

chain 2 Y612F: the response came to 10 AU.

Turning to chain 2 Y645F, the response was found to be 9.1 AU.

Variants of B2 are the subject of the next experiment. The description is as above. The following applies: with SH2 domain-containing leukocyte molecule of 76 kDa (SLP-76), Jurkat cells, 3 × 10^6 cells per sample, pervanadate treated, CD6 MAb (MEM-98), three experiments, read off a plot.
Regarding chain 2 Y645F, the response was 1.5 AU.

In the case of chain 2 Y612F, the response turned out to be 6.4 AU.

With chain 2 Y612F Y645F, the response was determined as 0.5 AU.

Variants of B3 are the subject of a further experiment. The experiment is described as above. Conditions: with T cell-specific adaptor protein (TSAd), Jurkat cells, 3 × 10^6 cells per sample, pervanadate treated, CD6 MAb (MEM-98), three experiments, read off a plot.
As to chain 2 Y612F Y645F, the response came out at 4.4 AU.

With chain 2 Y645F, the response was determined as 5.2 AU.

Turning to chain 2 Y612F, the response amounted to 8.8 AU.
